This note sets out measurements from US20160089413.

This data set concerns all-D-retro-inverso JNK-inhibitor (poly-)peptide of SEQ ID NO: 11.

With c-Jun NH2-terminal kinases (JNK), the “c-Jun phosphorylation in RPE/choroid, densitometry of phospho c-Jun relative to tubulin, 24 h after IV injection (20 µg/kg)” value is on record as 0.28±0.01 vs 0.77±0.26 in IV of vehicle; the “c-Jun phosphorylation in RPE/choroid, densitometry of phospho c-Jun relative to tubulin, 24 h after IVT injection (0.2 µg/injection)” value was 0.35±0.08 vs 0.79±0.25 in IVT of vehicle; the “c-Jun phosphorylation in RPE/choroid, densitometry of phospho c-Jun relative to tubulin, fold decrease against vehicle” value is given as “An approximately 3-fold decrease in c-Jun phosphorylation”.
